In patent US5851983A, “Elastase inhibitory polypeptide and process for production thereof by recombinant gene technology” (Teijin Limited, priority 1987, dated 1998):

Target: T1, polymorphonuclear leucocyte elastase from human sputum (Homo sapiens, UniProt P08246)
T1 construct: Polymorphonuclear leukocyte elastase from human sputum (EPC Co; Funakoshi Yakuhin); purchased EPC Co. (via Funakoshi Yakuhin); host or cells: human sputum
T1 sequence (P08246 30-267): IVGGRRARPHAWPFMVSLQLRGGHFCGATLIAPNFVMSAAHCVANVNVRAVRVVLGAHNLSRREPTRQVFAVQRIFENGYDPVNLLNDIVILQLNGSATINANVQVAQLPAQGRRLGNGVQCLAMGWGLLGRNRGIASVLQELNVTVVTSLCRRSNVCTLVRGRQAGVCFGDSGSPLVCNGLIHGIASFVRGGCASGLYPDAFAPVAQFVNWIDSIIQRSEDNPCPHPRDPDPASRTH
Test: Treatment with polymorphonuclear leucocyte elastase from human sputum (Examples 27, 30)
Type: in vitro ADME
Settings: 37° C.
Method: Polymorphonuclear leucocyte elastase from human sputum (EPC, Funakoshi Yakuhin) and SLPI were separately dissolved in a buffer (0.1M HEPES, 0.1M NaCl, 0.1% PEG 6000, pH 7.5) and the elastase solution was added to the SLPI solution, and the mixture was incubated at 37° C. Samples were taken as time elapsed, and to each sample were added Tris-HCl buffer (pH 6.8), SDS, 2-mercaptolethanol, glycerol, and Coomassie Brilliant Blue to final concentrations of 50 mM, 4 w/v %, 2 v/v %, 12 v/v % and 0.01 w/v % respectively. The mixture was subjected to SDS-polyacrylamide gel electrophoresis using Tricine (Sigma) as a polar buffer (Schagger, H., Anal. Biochem. 166, 368, 1987). After the electrophoresis, the gel was stained with Coomassie Brilliant Blue G-250, and decoloured with 50% (v/v) methanol/10% (v/v) acetic acid.
(1) A result of a test, wherein elastase was added to 100 μM SLPI to an elastase final concentration of 200 μM, and the mixture was incubated at 37° C. up to 192 hours taking samples as time elapsed, is shown in FIG. 20. […]
(3) Next, polypeptides thus generated were electrically transferred to a membrane (Immobilon-p^SQ Millipore) using a Milli Blot-SDE apparatus (Millipore). […] After drying, relevant bands were cut out, and the peptide was cleaved from the N-terminal using an Applied Biosystems Protein-Sequencer (Applied Biosystems; 477A), and after PTH-conversion, the resulting amino acid derivatives were analyzed by a PTH-Amino acid analyzer (Applied Biosystems, 120A) to determine the N-terminal amino acid sequence.
According to the same procedure as described in Example 27, (Asn^55 -Ala^107) SLPI (final concentration 100 μM) was treated with elastase (final concentration 200 μM) at 37° C. for 48 hours. The sample was separated by SDS-PAGE, and electrically transferred to a filter as described in Example 27, a band corresponding to a molecular weight of about 5,500 was cut out, and an N-terminal amino acid sequence was analyzed.

B1: SLPI: Human secretory leukoprotease inhibitor; recombinant SLPI of Reference Example 1 used as control (protein)
chain: SGKSFKAGVCPPKKSAQCLRYKKPECQSDWQCPGKKRCCPDTCGIKCLDPVDTPNPTRRKPGKCPVTYGQCLMLNPPNFCEMDGQCKRDLKCCMGMCGKSCVSPVKA
SDS-PAGE band of SLPI on treatment with elastase (50 μM SLPI, not less than 100 μM elastase, one hour): disappeared significantly | SDS-PAGE band of SLPI on treatment with elastase (100 μM SLPI, 200 μM elastase): rapidly disappeared after 45 minute incubation | selective cleavage sites with elastase from human sputum (N-terminal sequencing of SDS-PAGE bands): between Ser^15 -Ala^16, and Thr^57 -Arg^58
